In the supplement of paper PMC11780869:

Test system: Bacillus subtilis
Test: cleaved RNA product abundance (RNA/gDNA barcode ratio) relative to median wild-type variant (ratio to wild type); higher = more accumulation of the downstream cleavage product
In short: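 Cleaved product abundance was measured with barcoded reporter mRNAs (truncated aprE or tetM) carrying mutagenized RNase Y cleavage-site windows in the B. subtilis chromosome. Cultures in LB at 37°C grew from OD600 0.0003 to 0.3. Gel-selected cleaved RNA was reverse transcribed and barcode-sequenced with genomic DNA barcodes, and the RNA:gDNA barcode ratio per construct was scaled to the median construct bearing the unmutated site.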

[1] = experiment (reporter, strain, medium): exp 4a: truncated aprE reporter, strain BJT201 with 2% xylose (RNase J1 expressed), cleavage site: cggR-gapA (positions -7 to +36 mutated)
[2] = experiment (reporter, strain, medium): exp 8a: truncated aprE reporter, strain BJT201 with 2% xylose (RNase J1 expressed), cleavage site: glnRA (positions -5 to +31 mutated)
[3] = experiment (reporter, strain, medium): exp 2b: truncated aprE reporter, strain BJT200, cleavage site: cggR-gapA (positions -7 to +36 mutated)

| Sequence | cleaved RNA product abundance [1] | cleaved RNA product abundance [2] | further results |
| --- | --- | --- | --- |
| ACAGACGAAGGAGCCGCAAAGAAGTTATTAAGGGATGATTAAACCCTCAATATAAATATCTCTCACTTATTTAAA | 0.362 |  |  |
| CGACATGTCCCGCTTCTTTCATTATTCCGTTAGCAACTGTTTGGCTATATACATTTACCTTTTAAGAGGAGGAAT |  | 0.949 |  |
| ACAGACGAAGGAGCCGCAAAGAATTTATTAAGGGATGAATAATCCGTCAATATAAATATCTCTCACTTATTTAAA | 0.163 |  |  |
| ACAGACGAAGGAGCCGCAAAGAAGTTATTAAAGGAGGAATAATCCCTCAATATAAATATCTCTCACTTATTTAAA | 0.25 |  |  |
| ACAGACGAAGGAGCCGCAAAGAAGTTATTAACGGATGAATAATCCCTCATTATAAATATCTCTCACTTATTTAAA | 0.141 |  | cleaved RNA product abundance [3]: 0.128 |
| ACAGACGAAGGAGCCGCCAAGAAGTTATTAACGGATGAATAATCCCTCAATATAAATATCTCTCACTTATTTAAA |  |  | cleaved RNA product abundance [3]: 0.0909 |
| CGACATGTCCCGCTTCTTTCATTAATCCGATAGCAACTGTTTTGCTATATAGATTTACCTTTTAAGAGGAGGAAT |  | 1.02 |  |
| ACAGACGAAGGAGCCGCAAAGAAATTATTAAGGAATGAATAATCCCTCAATATAAATATCTCTCACTTATTTAAA | 0.191 |  | cleaved RNA product abundance [3]: 0.101; cleaved RNA product abundance (experiment (reporter, strain, medium): exp 6: tetM reporter, strain 168, cleavage site: cggR-gapA (positions -7 to +36 mutated)): 0.104 |
| ACAGACGAAGGAGCCGCAAAGAAGTTATTTAGGGATGAATAATCCCTCAATACAAATATCTCTCACTTATTTAAA | 0.0541 |  |  |
| ACAGACGAAGGAGCCGCAAAGAAGTTATTAAGGGATGATTAATCCCTGAATATAAATATCTCTCACTTATTTAAA | 0.458 |  |  |
| CGACATGTCCCGCTTCTTTCATTATTCCGTTAGCAACTGTTTTTCTATATACATTTACCTTTTAAGAGGAGGAAT |  | 0.62 |  |
| ACAGACGAAGGAGCCGCAAAGAAGTTATTAAGGTATAAATAATCCCTCAATATAAATGTCTCTCACTTATTTAAA | 0.11 |  |  |
| ACAGACGAAGGAGCCGCAAAGAAGTTATTAAGGGATGATTTATCCCTCAATATAAATATCTCTCACTTATTTAAA | 0.771 |  |  |
| ACAGACGAAGGAGCCGCAAAGAATTTAGTAAGGGATGAATAATCCCTCAATATAAATATCTCTCACTTATTTAAA | 0.337 |  |  |
| ACAGACGAAGGAGCCGCAAGGAAGTAATTAAGGGATGAATAATCCCTCAATATAAATATCTCTCACTTATTTAAA | 0.182 |  |  |
| CGACATGTCCCGCTTCTTTCATTAATCCGTTATCAACTGTTTTGCTTTATACATTTACCTTTTAAGAGGAGGAAT |  | 0.202 |  |
| CGACATGTCCCGCTTCTTTCATTAATCCGTTAGCAACTGTTTTGCTATATACATATACCATTTAAGAGGAGGAAT |  | 0.971 |  |
| CGACATGTCCCGCTTCTTTCATTAATCGGTTAGAAACTGTTTTGCTATATACATTTACCTTTTAAGAGGAGGAAT |  | 0.222 |  |
| ACAGACGAAGGAGCCGCAAAGAAGTAATTAAGGGATGAATAAACCCTCATTATAAATATCTCTCACTTATTTAAA | 0.148 |  |  |
| ACAGACGAAGGAGCCGCAAAGAAGTTATTAGGGGATGACTAATCCCTCAATATAAATATCTCTCACTTATTTAAA | 0.63 |  |  |
| CGACATGTCCCGCTTCTTTCATTAATTCGTTAGCAACTGTTTTGCTATATACATTTAGCTTTTAAGAGGAGGAAT |  | 1.88 |  |

| Sequence | cleaved RNA product abundance [1] | cleaved RNA product abundance [2] | further results |
| --- | --- | --- | --- |
| ACAGACGAAGGAGCCGCAAAGAAATTATTAATGAATGAATAATCCCTCAATATAAATATCTCTCACTTATTTAAA | 0.152 |  |  |
| CGACATGTCCCGCTTCTTTCATTAATCCGTGAGCAACTGTTTTGCTATATACATTTACCTTTTAAGAGGAGGAAT |  | 0.549 |  |
| CGACATGTCCCGCTTCTTTCATTAATCCGTTAGCAACTGTTTTGATATATACATTTACCTTTTAAGAGGAGGAAT |  | 0.503 |  |
| ACAGACGAAGGAGCCGCAAAAACGTTATTAAGGGATGAATAATCCCTCAATATAAATATCTCTCACTTATTTAAA | 1.04 |  |  |
| ACAGACGAAGGAGCCGCAAAGAAGTAATTAAGGGATGAATAATCCCTCGATATAAATATCTCTCACTTATTTAAA | 0.155 |  | cleaved RNA product abundance [3]: 0.102 |
| CGACATGTCCCGCTTCTTTCATTAATCCGTTAGCAACTGTTTCGTTATATACATTTACCTTTTAAGAGGAGGAAT |  | 0.222 |  |
| ACAGACGAAGGAGCCGCAAAGAAGTTATTAACGGAAGAATAATCCCTCAATATAAATATCTCTCACTTATTTAAA | 0.152 |  |  |
| CGACATGTCCCGCTTCTTTCATTAATCCGTTATCAACTGTTATGCTATATACATTTACCTTTTAAGAGGAGGAAT |  | 0.24 |  |
| ACAGACGAAGGAGCCGCACAGAAGTTATTAAGAGATGAATAATCCCTCAATATAAATTTCTCTCACTTATTTAAA | 0.113 |  |  |
| ACAGACGAAGGAGCCGCAAAGAAGTTATTAAGGGATGAATAATGCCTCAATATAAAAATCTCTCACTTATTTAAA | 0.159 |  | cleaved RNA product abundance [3]: 0.15 |
| ACAGACGAAGGAGCCGCAAAGAAGTTATTAACGGATGAATAATCCCTCAATATAAATCTCTCTCACTTATTTAAA |  |  | cleaved RNA product abundance [3]: 0.108 |
| CGACATGTCCCGCTTCTTTCATTAATCGGTTAACAAATGTTGTGCTATAGACATTTACCTTTTAAGAGGAGGAAT |  | 0.209 |  |
| ACAGACGAAGGAGCCGCAAAGAAGTTATTAAGGTATGAATAATCCCACAATATAAATATCTCTCACTTATTTAAA | 0.0978 |  | cleaved RNA product abundance [3]: 0.0792 |
| CGACATGTCCCGCTTCTTTCATTAATCCGTTAGCAACTGTTTTGCTATATACAATTATCTTTTAAGAGGAGGAAT |  | 0.873 |  |
| CGACATGTCCCGCTTCTTTCATTAATCCGTCAGCAACTTTTTTGCTATATACATTTACCTTTTAAGAGGAGGAAT |  | 0.621 |  |
| CGACATGTCCCGCTTCTTTCATTAAACCGTTAGCAACTGTTTTGCTATATACTTTTACCTTTTAAGAGGAGGAAT |  | 0.534 |  |
| CGACATGTCCCGCTTCTTTCATTAATCCCTTAGCAACTGTTTTGCTATATACATTTACCTTTTAAGAGGAGGAAT |  | 0.213 |  |
| ACAGACGAAGGAGCCGCAAAAGAAGTTATTAAGGGATGAATAATCCCTCAATATAAATATCTCTCACTTATTTAA | 1.06 |  |  |
| CGACATGTCCCGCTTCTTTCATTAATCTGTTAGCAACTGTTTTGCTTTATACATTTACCTTTTAAGAGGAGGAAT |  | 0.247 |  |
| ACAGACGAAGGAGCCGCAAAGAAGTTATTAAGCGATGAATAATCCTTCAATATAAATATCTCTCACTTATTTAAA | 0.119 |  | cleaved RNA product abundance [3]: 0.0918 |
| ACAGACGAAGGAGCCGCAAAGAAGTTAGTAAGGGATGAATAATCCCTTAATATAAATATCTCTCACTTATTTAAA | 0.724 |  |  |

| Sequence | cleaved RNA product abundance [1] | cleaved RNA product abundance [2] | further results |
| --- | --- | --- | --- |
| ACAGACGAAGGAGCCGCAAAGAAGTTATTAAGATATGAATAATCCCTAAATATAAATATCTCTCACTTATTTAAA | 0.101 |  |  |
| ACAGACGAAGGAGCCGCAAAGAAGTTATTAAGGTATGAATAATCCCTCCATATAAATATCTCTCACTTATTTAAA | 0.0967 |  |  |
| ACAGACGAAGGAGCCGCAAAGAAGTTATTAACGGATGAATAATCCCTCAATACAAATATCTCTCACTTATTTAAA | 0.0789 |  |  |
| CGACATGTCCCGCTTCTTTCATTAATCCATTAGCAACTGTTTGGCTATATACATTTACCTTTTAAGAGGAGGAAT |  | 0.386 |  |
| ACAGACGAAGGAGCCGCAAAGGAGTTATTAAGGGATGAAAAATCCCTCAATATAAATATCTCTCACTTATTTAAA | 0.576 |  |  |
| ACAGACGAAGGAGCCGCAAAGAAGTTAATAAGGGATGAATAATCCCTCAATATAAATAGCTCTCACTTATTTAAA | 0.293 |  |  |
| ACAGACGAAGGAGCCGCAACGAAGTTATTAAGGGTTGAATAATCCCTCAATATAAATATCTCTCACTTATTTAAA | 0.508 |  |  |
| ACAGACGAAGGAGCCGCAAAAAAGTTATTAAGGGATGAATAATCCATCAATATAAATATCTCTCACTTATTTAAA | 0.307 |  | cleaved RNA product abundance [3]: 0.17 |
| CGACATGTCCCGCTTCTTTCATTAATCCGTTAGCAACTGTTTTGCTAAATAGATTTACCTTTTAAGAGGAGGAAT |  | 0.884 |  |
| ACAGACGAAGGAGCCGCAAAGAAGTTATTAAGAGTTGAATAATCCCTCAATATAAATATCTCTCACTTATTTAAA | 0.0897 |  |  |
| CGACATGTCCCGCTTCTTTCATTAATCCGTTAGCAAGTGTTTTGCTATATACATTTACCTTTTAAGAGGAGGAAT |  | 0.995 |  |
| ACAGACGAAGGAGCCGCTAAGAAGTTATTAAGGTATGAATAATCCCTCAATATAAATATCTCTCACTTATTTAAA | 0.296 |  | cleaved RNA product abundance [3]: 0.114 |
| CGACATGTCCCGCTTCTTTCATTAATCCGTGAACAACTGTTTTGCTATATACATTTACCTTTTAAGAGGAGGAAT |  | 0.232 |  |
| ACAGACGAAGGAGCCGCAAAGTAGTTATTAAGGTATGAATAATCCCTCAATATAAATATCTCTCACTTATTTAAA | 0.0907 |  |  |
| CGACATGTCCCGCTTCTTTCATTAATCCGTTACCAACTGTTTTGCTATATAGATTTACCTTTTAAGAGGAGGAAT |  | 0.226 |  |
| ACAGACGAAGGAGCCGCAAAGAAGTTATTAAGGGATGAATAATCCAACAATATAAATATCTCTCACTTATTTAAA | 0.174 |  | cleaved RNA product abundance [3]: 0.184 |
| ACAGACGAAGGAGCCGCTAAGAAGTTATTAAGGGATGAATAATCCCTCAATGTAAATATCTCTCACTTATTTAAA | 0.0932 |  |  |
| CGACATGTCCCGCTTCTTTCATTAATCCGTTAGCAACAGTTTTGCTATATACAATTACCTTTTAAGAGGAGGAAT |  | 0.601 |  |
| ACAGACGAAGGAGCCGCAAAGAAGTTATTAAGGGACGAATATTCCCTCAATATAAATATCTCTCACTTATTTAAA | 0.525 |  |  |
| ACAGACGAAGGAGCCGCAATAAAGTTATTAAGGGATGAATAATCCCTCAATATAAATATCTCTCACTTATTTAAA | 1.09 |  | cleaved RNA product abundance [3]: 1.03 |
